Assay [1] deals with type I gelatin (heat-denatured acid-soluble type I atelocollagen from bovine hides) (bovine) (UniProt P02453). Nature of the assay: ELISA; indirect ELISA; gelatin coated on the plate (5 µg/ml); His-tagged collagenase variant in PBST with 1% BSA, serially diluted 1:3, 140 min at 37 °C; detected with anti-His-HRP; Hill fit; apparent Kd.
Assay [2] deals with soluble type I collagen (acid-soluble type I atelocollagen from bovine hides) (bovine) (UniProt P02453). Nature of the assay: ELISA; indirect ELISA; soluble type I collagen coated on the plate (5 µg/ml); His-tagged collagenase variant in PBST with 1% BSA, serially diluted 1:3, 140 min at room temperature (25 °C); detected with anti-His-HRP; Hill fit; apparent Kd. (In general: An ELISA detects its analyte on a solid surface through an enzyme-linked reagent.)
Chain of soluble type I collagen (acid-soluble type I atelocollagen from bovine hides) (bovine) (P02453 162-1217, chain 1 of 2): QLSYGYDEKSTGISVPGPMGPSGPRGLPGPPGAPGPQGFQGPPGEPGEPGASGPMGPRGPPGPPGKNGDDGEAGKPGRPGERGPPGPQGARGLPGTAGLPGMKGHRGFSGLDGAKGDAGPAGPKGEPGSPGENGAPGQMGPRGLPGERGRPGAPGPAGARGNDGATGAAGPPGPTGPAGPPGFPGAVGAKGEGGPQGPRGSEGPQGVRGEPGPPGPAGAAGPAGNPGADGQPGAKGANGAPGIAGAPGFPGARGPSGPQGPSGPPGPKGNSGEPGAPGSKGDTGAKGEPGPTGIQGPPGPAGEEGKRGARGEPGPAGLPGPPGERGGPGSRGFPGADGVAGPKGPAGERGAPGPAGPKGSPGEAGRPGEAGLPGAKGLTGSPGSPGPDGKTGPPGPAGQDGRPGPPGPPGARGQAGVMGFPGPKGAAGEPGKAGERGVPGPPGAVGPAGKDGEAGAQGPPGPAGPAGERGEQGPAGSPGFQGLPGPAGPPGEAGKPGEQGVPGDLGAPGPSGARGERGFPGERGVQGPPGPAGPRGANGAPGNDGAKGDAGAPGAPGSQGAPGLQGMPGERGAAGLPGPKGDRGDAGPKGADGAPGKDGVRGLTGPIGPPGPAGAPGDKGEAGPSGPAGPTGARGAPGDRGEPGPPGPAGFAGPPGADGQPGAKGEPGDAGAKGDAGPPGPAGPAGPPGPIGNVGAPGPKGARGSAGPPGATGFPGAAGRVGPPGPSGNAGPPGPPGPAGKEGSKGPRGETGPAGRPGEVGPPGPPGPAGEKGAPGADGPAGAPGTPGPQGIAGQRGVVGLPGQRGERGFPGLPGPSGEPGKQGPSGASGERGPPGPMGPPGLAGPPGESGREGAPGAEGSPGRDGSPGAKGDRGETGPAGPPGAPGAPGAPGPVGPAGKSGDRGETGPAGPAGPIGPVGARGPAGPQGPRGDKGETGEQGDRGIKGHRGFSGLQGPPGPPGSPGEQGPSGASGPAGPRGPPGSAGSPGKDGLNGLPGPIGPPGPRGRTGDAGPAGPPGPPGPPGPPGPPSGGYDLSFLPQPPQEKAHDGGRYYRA
Chain of soluble type I collagen (acid-soluble type I atelocollagen from bovine hides) (bovine) (P02465 80-1117, chain 2 of 2, further chain): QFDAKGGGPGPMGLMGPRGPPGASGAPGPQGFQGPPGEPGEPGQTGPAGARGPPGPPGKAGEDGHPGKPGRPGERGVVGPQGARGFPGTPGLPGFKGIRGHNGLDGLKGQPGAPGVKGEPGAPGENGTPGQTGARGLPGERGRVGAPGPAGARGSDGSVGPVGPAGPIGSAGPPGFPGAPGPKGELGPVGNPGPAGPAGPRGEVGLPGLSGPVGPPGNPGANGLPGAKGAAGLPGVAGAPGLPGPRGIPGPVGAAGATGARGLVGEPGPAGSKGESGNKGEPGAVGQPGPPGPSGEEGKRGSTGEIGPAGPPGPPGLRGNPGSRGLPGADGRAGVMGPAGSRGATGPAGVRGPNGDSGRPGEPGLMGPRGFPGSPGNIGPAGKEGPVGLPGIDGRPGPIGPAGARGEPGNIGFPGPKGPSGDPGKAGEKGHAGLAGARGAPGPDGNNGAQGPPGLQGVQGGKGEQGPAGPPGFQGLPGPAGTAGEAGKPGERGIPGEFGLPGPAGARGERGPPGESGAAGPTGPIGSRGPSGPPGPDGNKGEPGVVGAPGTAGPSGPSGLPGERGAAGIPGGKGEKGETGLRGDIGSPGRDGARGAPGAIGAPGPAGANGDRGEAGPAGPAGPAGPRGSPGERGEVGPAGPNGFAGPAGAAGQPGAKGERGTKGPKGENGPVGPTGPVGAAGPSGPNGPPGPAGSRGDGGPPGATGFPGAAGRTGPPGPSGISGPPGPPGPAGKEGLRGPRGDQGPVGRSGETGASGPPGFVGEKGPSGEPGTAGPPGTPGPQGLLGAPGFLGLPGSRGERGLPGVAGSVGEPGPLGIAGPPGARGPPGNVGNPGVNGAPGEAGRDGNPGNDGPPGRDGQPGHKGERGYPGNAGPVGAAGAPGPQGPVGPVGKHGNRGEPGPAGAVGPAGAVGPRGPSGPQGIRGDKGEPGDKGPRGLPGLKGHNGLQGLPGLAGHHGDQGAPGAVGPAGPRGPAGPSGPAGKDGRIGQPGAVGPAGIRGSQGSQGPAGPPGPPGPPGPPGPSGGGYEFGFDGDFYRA

Chain of type I gelatin (heat-denatured acid-soluble type I atelocollagen from bovine hides) (bovine) (P02453 23-1217, chain 1 of 2): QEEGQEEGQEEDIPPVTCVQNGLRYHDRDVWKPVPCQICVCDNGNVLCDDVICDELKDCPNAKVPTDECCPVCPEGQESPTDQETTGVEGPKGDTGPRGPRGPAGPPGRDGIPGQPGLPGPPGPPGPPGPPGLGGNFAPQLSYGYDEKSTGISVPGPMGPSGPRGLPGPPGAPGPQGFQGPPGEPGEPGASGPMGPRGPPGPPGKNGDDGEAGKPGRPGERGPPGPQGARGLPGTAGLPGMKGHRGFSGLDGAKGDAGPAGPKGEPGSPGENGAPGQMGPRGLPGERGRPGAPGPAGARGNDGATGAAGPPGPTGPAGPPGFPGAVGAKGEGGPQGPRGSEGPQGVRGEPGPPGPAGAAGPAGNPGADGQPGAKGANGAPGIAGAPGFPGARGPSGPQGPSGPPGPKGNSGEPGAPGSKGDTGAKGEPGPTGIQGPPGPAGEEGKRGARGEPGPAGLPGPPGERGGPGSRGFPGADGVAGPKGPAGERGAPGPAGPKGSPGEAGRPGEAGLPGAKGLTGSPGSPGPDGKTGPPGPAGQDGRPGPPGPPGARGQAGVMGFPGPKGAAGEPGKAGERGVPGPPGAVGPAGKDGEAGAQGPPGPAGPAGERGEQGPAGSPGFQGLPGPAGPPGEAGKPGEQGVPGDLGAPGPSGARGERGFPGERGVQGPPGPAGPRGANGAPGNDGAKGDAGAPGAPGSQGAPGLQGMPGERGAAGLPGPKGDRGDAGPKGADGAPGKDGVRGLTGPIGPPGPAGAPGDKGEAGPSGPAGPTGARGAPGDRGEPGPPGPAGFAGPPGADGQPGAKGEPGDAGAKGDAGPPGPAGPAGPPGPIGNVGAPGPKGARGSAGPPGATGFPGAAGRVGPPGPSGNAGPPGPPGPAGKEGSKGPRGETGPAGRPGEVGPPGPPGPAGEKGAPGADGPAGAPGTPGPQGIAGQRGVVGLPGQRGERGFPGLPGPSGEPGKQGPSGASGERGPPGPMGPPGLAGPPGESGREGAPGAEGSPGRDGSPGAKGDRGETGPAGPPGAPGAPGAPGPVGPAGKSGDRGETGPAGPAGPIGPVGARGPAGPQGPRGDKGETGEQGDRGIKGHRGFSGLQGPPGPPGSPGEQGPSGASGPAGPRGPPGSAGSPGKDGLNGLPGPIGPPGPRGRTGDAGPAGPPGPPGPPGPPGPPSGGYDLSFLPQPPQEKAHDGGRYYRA
Chain of type I gelatin (heat-denatured acid-soluble type I atelocollagen from bovine hides) (bovine) (P02465 80-1117, chain 2 of 2, further chain): as the sequence (P02465 80-1117, chain 2 of 2, further chain) above

For “ColQ1-CU G472V E166A (from UniProt B9J3S4 94-965) (domain or fragment)”, the Kd in assay [1] stood at 5 µM.

With “ColQ1-CU G472V F123A (from UniProt B9J3S4 94-965) (domain or fragment)”, in assay [1], the Kd is 1.6 µM.

Consider “ColQ1-CU G472V F176A (from UniProt B9J3S4 94-965) (domain or fragment)”, for which the Kd in assay [1] stood at 1.2 µM; in assay [2], 0.08 µM.

Consider “ColQ1-CU G472V N317A (control mutant) (from UniProt B9J3S4 94-965) (domain or fragment)”, for which the values for the Kd in assay [1] and in assay [2] were 2.3 µM and 2.8 µM, respectively.

With “ColQ1-CU G472V R169A (from UniProt B9J3S4 94-965) (domain or fragment)”, the Kd in assay [1] is 2.8 µM; in assay [2], 0.17 µM.

Regarding “ColQ1-CU G472V Y173A (from UniProt B9J3S4 94-965) (domain or fragment)”, the Kd in assay [1] was 24 µM.

“ColQ1-CU G472V Y251A (control mutant) (from UniProt B9J3S4 94-965) (domain or fragment)”: the Kd in assay [1] turned out to be 2.5 µM; in assay [2], 2.8 µM.

As to “ColQ1-CU G472V Y270A (from UniProt B9J3S4 94-965) (domain or fragment)”, the results for the Kd in assay [1] and in assay [2] were 4.2 µM and 0.19 µM, respectively.

For “ColQ1-CU G472V Y321A (control mutant) (from UniProt B9J3S4 94-965) (domain or fragment)”, the Kd turned out to be 2.5 µM in assay [1] and 4 µM in assay [2].

The values are drawn from paper PMC11032491, “A conserved strategy to attack collagen: The activator domain in bacterial collagenases unwinds triple-helical collagen” (Proceedings of the National Academy of Sciences of the …, 2024).
